Assay: soluble on expression in E. coli; label from the status in PepcDB or PDB records

Row | Sequence | soluble on expression in E. coli
1 | MGSDKIHHHHHHMRIAVIGGGSSYTPELVKGLLDISEDVRIDEVIFYDIDEEKQKIVVDFVKRLVKDRFKVLISDTFEGAVVDAKYVIFQFRPGGLKGRENDEGIPLKYGLIGQETTGVGGFSAALRAFPIVEEYVDTVRKTSNATIVNFTNPSGHITEFVRNYLEYEKFIGLCNVPINFIREIAEMFSARLEDVFLKYYGLNHLSFIEKVFVKGEDVTEKVFENLKLKLSNIPDEDFPTWFYDSVRLIVNPYLRYYLMEKKMFKKISTHELRAREVMKIEKELFEKYRTAVEIPEELTKRGGSMYSTAAAHLIRDLETDEGKIHIVNTRNNGSIENLPDDYVLEIPCYVRSGRVHTLSQGKGDHFALSFIHAVKMYERLTIEAYLKRSKKLALKALLSHPLGPDVEDAKDLLEEILEANREYVKLG | not soluble
2 | MAHHHHHHMQQRKTNKLFYPVAFLHFFLGEDNERRMFRRLSTSTLAAAAVRFYTPSESLKKLYTSDFDKTEFPLSIVPSDSVLFAKFLYKAAEPNNSFDAILKDFQTIAAASSSLPIFWERTAVVEDVAEFKKLSEPMFFTLVWMQKNGMLDLIPEVSEIYETYVNAKMKRIVAKIYVAPGKEGEVGEAKRVAQELHKEAKELDGYTLVFKTVVDRSIVTGFAVELAGQYVNRAEGHKSHAPAADEADYTTIPAPRLPKTVWEDNIETEVLCRYLESLAEYDAEEAKHGV | not soluble
3 | MAHHHHHHMLWRKQCACRTPEHPTKGYRSVNDSLQLMEIRRTSTPLNYKLLRAYQFLPYEVPFPPHTFASQQWREGENVEAHYALYQTCLCMYLVSSDMSLTVTNMLPALGIHEHDVHKVSRTLCAARCST | not soluble
4 | MWPRNDVHMDDGSMTPEDQEPVTDNDMEYNDNGEESSYSNGSSSSYNADKLSSSRPLQHKLDLSASPSRNNDLNPRVEHLIALFKDLSSAEQMDAFTRLLQESNMTNIRQLRAIIEPHFQRDFLSCLPVELGMKILHNLTGYDLLKVAQVSKNWKLISEIDKIWKSLGVEEFKHHPDPTDRVTGAWQGTAIAAGVTIPDHIQPCDLNVHRFLKLQKFGDIFERAADKSRYLRADKIEKNWNANPIMGSAVLRGHEDHVITCMQIHDDVLVTGSDDNTLKVWCIDKGEVMYTLVGHTGGVWTSQISQCGRYIVSGSTDRTVKVWSTVDGSLLHTLQGHTSTVRCMAMAGSILVTGSRDTTLRVWDVESGRHLATLHGHHAAVRCVQFDGTTVVSGGYDFTVKIWNAHTGRCIRTLTGHNNRVYSLLFESERSIVCSGSLDTSIRVWDFTRPEGQECVALLQGHTSLTSGMQLRGNILVSCNADSHVRVWDIHEGTCVHMLSGHRSAITSLQWFGRNMVATSSDDGTVKLWDIERGALIRDLVTLDSGGNGGCIWRLCSTSTMLACAVGSRNNTEETKVILLDFDAVYP | not soluble
5 | GPGSMLSQYLRKRVSVVTVDGRNLVGVLHAADQLLNIVLTSCVERTGAPYDFDDGAAEEDNGSVVDEGVSTAFSGGDTASGALPPLEEVHLGVMMLRGADVVSIAAIDVYEEAGTNVKDWRGRDMPPATAVARSW | soluble
6 | MGSDKIHHHHHHVYKALFFDVDDTLLNFEQCSREALGKTFRHFSMDYDDTVYELFRSIDQRLWLQQKQGELTVQDVINLRFQELFKQLQLGCSHIPLQTMFQERLAEEFFTEPHAAESLGYLSARYQLFVTSNGILKTQLKRLELAGLLPYFTDVFVSDHIGHEKPSVRFFEECLQRSRLKPSEVLLIGDSLEADMVGAQTSKMDSCWYNPKHRNTDSDVEIDYIISDLLQLKDILQ | not soluble
7 | MGSDKIHHHHHHMAVVQHHLPLSARLPARGIFEDDWRDRPSKRHPYPVILIHGTGVTKGDWMELGHALRSLGYAVWAPDFGMRSTAAVAESAAQVGAYIDAVLTVTKAKKAIVVGHSQGGILARYWMHNLDGANKVSHLISLAVPHHGTSHGGMMSPLGRTPRGTAVIDSLITGFFGASGFEMLHDSELIAQLNEHGDTLPYVYYSCIATRSDTIIQPVESCFLHGKLVRNIYAQAVSKHAIILHEDMPHDPRVRRLVIAEIERVERLTIPS | not soluble
8 | MSLIEENLKQKIHDKFVAAKKNGHLKVTHAESKKLKDPQTTTQYWVTFAPSLALKPDANKNSDSKAEDPFANPDEELVVTEDLNGDGEYKLLLNKFPVVPEHSLLVTSEFKDQRSALTPSDLMTAYNVLCSLQGDKDDDVTCERYLVFYNCGPHSGSSQDHKHLQIMQMPEKFIPFQDVLCNGKDHFLPTFNAEPLQDDKVSFAHFVLPLPESSDQVDEDLLAMCYVSLMQRALTFFQDWTNESPELTKSYNVLLTKKWICVVPRSHAKSGPPLMLNINSTGYCGMILVKDREKLENLTEDPHLVDKSLLQCGFPNTAGQKPTEYHYEGHHHHHH | soluble
9 | MGSDKIHHHHHHVLTNQTGYEYHKCTDLTAMIKDYIDNWQKNNAHFDGIYSGFMTGSKQIELFMDFLDVFYEKNTMLLVDPVMGDDGRTYGIYSAALLDGMKALSRKADVITPNLTEACLLADYDIEKVYSDTRKDVLLPIAAEISEKLRCLSGKNQDVIITGIKCRDDKSPFIYNLVTTANGTTTHRSHFFDVSFSGTGDLFASVICGSRLNGFSTEEAAERAGKFLYDSIADTMNDDTAPNDGVNFEKFLRELM | not soluble
10 | MGSRDDEYDYLFKVVLIGDSGVGKSNLLSRFTRNEFNLESKSTIGVEFATRSISVEGKTVKAQIWDTAGQERYRAITSAYYRGAVGALLVYDIAKHVTYENVERWLKELRDHADQNIVIMLVGNKSDLRHLRAVPTDEAKIYAERNQLSFIETSALDSTNVEAAFTNILTEIYKSVSNKHVGTDRQGYGGGSGTIIPSPASDPPKKQCCIP | not soluble
11 | MIIGSRRARSDKYVKIAHLMQCTQPWFNHFLPEPESPQASTYKMLKPVSWLPRPVKSVSFYPSRRTAVARNGHNLRLQWRGPLPELHWHSRSLQHTQH | not soluble
12 | STLKGALSVKFDVKCPADKFFSAFVEDTNRPFEKNGKTEIEAVDLVKKTMTIQMSGSEIQKYFKTLKGSIAVTPIGVGDGSHVVWTFHFEKVHKDIDDPHSIIDESVKYFKKLDEAILNFKE | soluble
13 | MGHHHHHHSHMKVQGAGQLRLSIDAQDRVLLLHIIEGKGLISKQPGTCDPYVKISLIPEDSRLRHQKTQTVPDCRDPAFHEHFFFPVQEEDDQKRLLVTVWNRASQSRQSGLIGCMSFGVKSLLTPDKEISGWYYLLGEHLGRTKHLKVARRRL | soluble
14 | MSYYHHHHHHDYDIPTTENLYFQGAMGSMNTRNTRSKQRAPCGVSSSVKPRLDLIEQAPNPVYDRHPACITLPERTCRHPLTDLEANEQLGRCEDSVKNRFDRVIPFLQVVAGIPLGLDHVTRVQELAQSSLGHTLPEELLKDNWISGHNLKGIFGYATAKALTAATEQFSRKIMSEKDDSASAIGFFLDCGFHAVDISPCADGRLKGLLPYILRLPLTAFTYRKAYAGSMFDIEDDLAQWEKNELRRYREGVPNTADQPTRYLKIAVYHFSTSDPTHSGCAAHGSNDRAALEAALTQLMKFREAVENAHCCGASIDILLIGVDTDTDAIRVHIPDSKGFLNPYRYVDNTVTYAQTLHLAPDEARVIIHEAILNANRSDGWAKGNGVASEGMRRFIGQLLINNLSQIDYVVNRHGGRYPPNDIGHAERYISVGDGFDEVQIRNLAYYAHLDTVEENAIDVDVGITIFTKLNLSRGLPIPIAIHYRYDPNVPGSRERTVVKARRIYNAIKERFSSLDEQNLLQFRLSVQAQDIGSPIEEVASA | soluble
15 | MKIGVLGLQGAVREHVRAIEACGAEAVIVKKSEQLEGLDGLVLPGGESTTMRRLIDRYGLMEPLKQFAAAGKPMFGTCAGLILLAKRIVGYDEPHLGLMDITVERNSFGRQRESFEAELSIKGVGDGFVGVFIRAPHIVEAGDGVDVLATYNDRIVAARQGQFLGCSFHPELTDDHRLMQYFLNMVKEAKMASSLK | soluble
16 | SPDHLFPPKPNTRVVVAKFPMGAVTVEDLLVLGKPFGTVVKHLVLPAKGFLEFSAHKEAVNMVNHFQQKPAFVKDTRVGLYLSPRVEGIHSPPKYDEPVPKRLKRTNNPSVVCFSHLPPGEDNQAEVLELAAMFGEVWQSKFLDGKALIEMVDWRDADIMVKYYYSNPLKIQGKSIKVTMSYIKSLREMPGELTPRKSDSSKHSRQKEESSVKDKADDTNQESSEKETKTIKTPEQSQEEGVQLEEGTDHYNNLKLKHAVEEQADGQPDGE | soluble
17 | MKPFVPKLVYFEPEALSYPLGQELYEKFTQMGIEIRETTSHNQVRGIPGETELARYRNAKSTLVVGVRRTLKFDSSKPSAEYAIPLATGCMGHCHYCYLQTTLGSKPYIRVYVNLDDIFAQAQKYIDERAPEITRFEAACTSDIVGIDHLTHSLKKAIEFIGATDYGRLRFVTKYEHVDHLLDAKHNGKTRFRFSVNSRYVINHFEPGTSSFDARLQAARKVAGAGYKLGFVVAPIYRHDGWEQGYFELFQELARQLEGVDLSDLTFELIQHRFTKPAKRVIEQRYPKTKLDLDESKRKYKWGRYGIGKYVYRDKEARELEETMCSYIARFFPSAQVQYFT | not soluble
18 | MAIFTDPIREHADFGPGDAEWLHLLVGDWQMVADLAFADLALWFPHPEFGYIALAHVRPSTSHTVFHADFVGEGIRSDLRPLVDKAWNSRSIERSSETSWSSEMALRVEAVPMVRNGRTLAVVTSHMDLSSSRMPSRLELTYRQCAYDLLRMGTLGLWPDFASPTGSRRGAPRVGDGLIRLDAEGIVQYASPNGVSAFRRLGEVESLEGRSLAEVTAGLLKDRRMVDETLPLVVTGRMPWRSEIESRGVSLSLRAIPLRDEQHRFGALVLCRDVSELRRREMELVTKDATIREIHHRVKNNLQTVAALLRMQSRRMVSDEAKQGLEQAMRRVATIALVHETLSQGLTQSVDFDELIGRQFRLSAEVASPSQQVRTERSGLFGELPSDFATPLALVINELVTNAVEHGLEGRTGTVWLLADRADGDGNDEFLTVTIADDGVGLPDGQYTEGLGLQIVRTLVTSELGGSIQWSPREGGGTAVEIVLNLARA | not soluble
19 | MGHHHHHHSHGGCRELRSTKYISDGQCTSISPLKELVCAGECLLLPVLPNWIGGGYGTKYWSRRSSQEWRCVNDKTRTQRIQLQCQDGSTRTYKITVVTACKCKRYTRQHNESSHNFESMSPAKPVQHHRERKRASKSSKHSMS | not soluble
20 | GHMDQSDFSPYIEIDLPSESRIQSLHKSGLAAQEWVACEKVHGTNFGIYLINQGDHEVVRFAKRSGIMDPNENFFGYHILIDEFTAQIRILNDLLKQKYGLSRVGRLVLNGELFGAKYKHPLVPKSEKWCTLPNGKKFPIAGVQIQREPFPQYSPELHFFAFDIKYSVSGAEEDFVLLGYDEFVEFSSKVPNLLYARALVRGTLDECLAFDVENFMTPLPALLGLGNYPLEGNLAEGVVIRHVRRGDPAVEKHNVSTIIKLRCSSFMELKHPGKQKE | soluble
21 | MTNKQVEISMAEWDVMNIIWDKKSVSANEIVVEIQKYKEVSDKTIRTLITRLYKKEIIKRYKSENIYFYSSNIKEDDIKMKTAKTFLNKLYGGDMKSLVLNFAKNEELNNKEIEELRDILNDISKK | soluble
22 | MKPLSWSEAFGKGAGRIQASTIRELLKLTQRPGILSFAGGLPAPELFPKEEAAEAAARILREKGEVALQYSPTEGYAPLRAFVAEWIGVRPEEVLITTGSQQALDLVGKVFLDEGSPVLLEAPSYMGAIQAFRLQGPRFLTVPAGEEGPDLDALEEVLKRERPRFLYLIPSFQNPTGGLTPLPARKRLLQMVMERGLVVVEDDAYRELYFGEARLPSLFELAREAGYPGVIYLGSFSKVLSPGLRVAFAVAHPEALQKLVQAKQGADLHTPMLNQMLVHELLKEGFSERLERVRRVYREKAQAMLHALDREVPKEVRYTRPKGGMFVWMELPKGLSAEGLFRRALEENVAFVPGGPFFANGGGENTLRLSYATLDREGIAEGVRRLGRALKGLLALV | soluble

From the DeepSol protein solubility set
